Measurements taken from patent US20080301824A1.

How the values were obtained:
[1] = target: GAL4 binding domain-parkin(1-465) fusion encoded by pGBT9-parkin(1-465) (UniProt P04386); test: cell-based or functional assay
[2] = target: GFP-syt11 (GFP-tagged full-length human synaptotagmin XI) (human) [GFP: P42212]; test: co-IP with anti-HA agarose from HEK293 cells, anti-GFP blot

| β-galactosidase activity in yeast two-hybrid liquid assay, against pGAD10-hsyt11AB with pGBT9 vector control [1] [fold] | fold less interaction than parkinC418R [2] [fold less] | Substance |
| --- | --- | --- |
| 20 |  | GAL4 activation domain-hsyt11AB fusion encoded by pGAD10-hsyt11AB (human synaptotagmin 11, domains C2A and C2B) (from UniProt Q9BT88 157-431) |
|  | 2.5 | HA-tagged parkin with missense mutation C289G (from UniProt O60260 1-465) (enzyme) |
